{
  "source": "paper PMC2265524",
  "about": "“ruvA Mutants That Resolve Holliday Junctions but Do Not Reverse Replication Forks” (PLoS Genetics, 2008)",
  "key": {"RuvAz87 [1]": {"biological_target": "T1, RuvAz87 (Escherichia coli, UniProt P0A809 1-203, N79D;N100D)", "T1 sequence": "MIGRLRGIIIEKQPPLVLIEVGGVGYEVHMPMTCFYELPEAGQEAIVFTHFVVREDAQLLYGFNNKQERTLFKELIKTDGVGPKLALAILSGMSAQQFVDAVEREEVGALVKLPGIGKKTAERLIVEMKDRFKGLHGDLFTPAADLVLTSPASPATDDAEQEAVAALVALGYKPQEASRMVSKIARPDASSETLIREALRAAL", "assay": "EMSA; 5 mM EDTA; EMSA with ~4-5 ng labelled DNA; 5 mM EDTA (gel 0.5x TBE) or 3 mM MgCl2 without EDTA (gel 0.5x TB + 200 uM MgCl2); buffer as in cited ref 18; salt, pH and temperature not stated", "conditions": "protein: recombinant; chain copies: 4; label: 5' IRD700 on S24 (IT.01); fork of 3 strands; two arms double-stranded, one single-stranded (5' part of strand 2)"}, "RuvAz3 [2]": {"biological_target": "T2, RuvAz3 (Escherichia coli, UniProt P0A809 1-203, H29R;K129E;F140S)", "T2 sequence": "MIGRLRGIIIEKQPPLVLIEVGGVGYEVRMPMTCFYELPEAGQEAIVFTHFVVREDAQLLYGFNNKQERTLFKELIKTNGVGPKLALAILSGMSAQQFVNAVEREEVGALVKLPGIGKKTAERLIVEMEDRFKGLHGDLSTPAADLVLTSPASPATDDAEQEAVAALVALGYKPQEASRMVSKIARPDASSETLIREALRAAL", "assay": "EMSA; 5 mM EDTA; EMSA with ~4-5 ng labelled DNA; 5 mM EDTA (gel 0.5x TBE) or 3 mM MgCl2 without EDTA (gel 0.5x TB + 200 uM MgCl2); buffer as in cited ref 18; salt, pH and temperature not stated", "conditions": "protein: recombinant; chain copies: 4; label: 5' IRD700 on S24 (IT.01); fork of 3 strands; two arms double-stranded, one single-stranded (5' part of strand 2)"}, "RuvAz87 [3]": {"biological_target": "T1, RuvAz87", "assay": "EMSA; 3 mM Mg2+; EMSA with ~4-5 ng labelled DNA; 5 mM EDTA (gel 0.5x TBE) or 3 mM MgCl2 without EDTA (gel 0.5x TB + 200 uM MgCl2); buffer as in cited ref 18; salt, pH and temperature not stated", "conditions": "protein: recombinant; chain copies: 4; label: 5' IRD700 on S24 (IT.01); three-arm fork of 4 strands, all arms double-stranded"}, "RuvAz3 [4]": {"biological_target": "T2, RuvAz3", "assay": "EMSA; 3 mM Mg2+; EMSA with ~4-5 ng labelled DNA; 5 mM EDTA (gel 0.5x TBE) or 3 mM MgCl2 without EDTA (gel 0.5x TB + 200 uM MgCl2); buffer as in cited ref 18; salt, pH and temperature not stated", "conditions": "protein: recombinant; chain copies: 4; label: 5' IRD700 on S24 (IT.01); three-arm fork of 4 strands, all arms double-stranded"}},
  "data": [
    {"binder": "F1 (fork, one arm single-stranded) (structured_DNA) DNA 1: GACGCTGCCGAATTCTACCAGTGCCTTGCTAGGACATCTTTGCCCACCTGCAGGTTCACCC DNA 2: ATGGATAGTCGGATCCTCTAGACAGCTCCATGTAGCAAGGCACTGGTAGAATTCGGCAGCGT DNA 3: TGGGTGAACCTGCAGGTGGGCAAAGATGTCC", "values": [
      {"measurement": "binding result", "setting": "RuvAz87 [1]", "result": "no binding"},
      {"measurement": "binding result", "setting": "RuvAz3 [2]", "result": "no binding"}
    ]},
    {"binder": "F2 (fork, three double-stranded arms) (structured_DNA) DNA 1: GACGCTGCCGAATTCTACCAGTGCCTTGCTAGGACATCTTTGCCCACCTGCAGGTTCACCC DNA 2: ATGGATAGTCGGATCCTCTAGACAGCTCCATGTAGCAAGGCACTGGTAGAATTCGGCAGCGT DNA 3: TGGGTGAACCTGCAGGTGGGCAAAGATGTCC DNA 4: CATGGAGCTGTCTAGAGGATCCGACTATCGA", "values": [
      {"measurement": "binding result", "setting": "RuvAz87 [3]", "result": "no binding"},
      {"measurement": "binding result", "setting": "RuvAz3 [4]", "result": "no binding"}
    ]}
  ]
}
